# B1: 6mer-1-330 (peptide)
# peptide: RKVQRK
# B2: 6mer-1-332 (peptide)
# peptide: KKRVQK
# B3: 6mer-1-333 (peptide)
# peptide: RKRQSR
# B4: 6mer-1-876 (peptide)
# peptide: RKYWAR
# B5: 6mer-1-921 (peptide)
# peptide: RKFWHR
# B6: 6mer-1-883 (peptide)
# peptide: KKIDDK
# B7: 6mer-1-892 (peptide)
# peptide: RKTEKR
# B8: 6mer-1-885 (peptide)
# peptide: RRKTPR
# B9: 6mer-1-914 (peptide)
# peptide: RRKCVR
# B10: 6mer-1-884 (peptide)
# peptide: KRYTKR
# B11: 6mer-1-888 (peptide)
# peptide: KKTANK
# B12: 6mer-1-900 (peptide)
# peptide: RRDTGR
# B13: 6mer-1-899 (peptide)
# peptide: KRMKWK
# B14: 6mer-1-331 (peptide)
# peptide: RKRITR
# B15: 6mer-1-890 (peptide)
# peptide: RRTSNK
# B16: 6mer-1-905 (peptide)
# peptide: RRICER
# B17: 6mer-1-916 (peptide)
# peptide: RRNAAK
# B18: 6mer-1-872 (peptide)
# peptide: KRPCHR
# B19: 6mer-1-877 (peptide)
# peptide: KKPEWR
# B20: 6mer-1-875 (peptide)
# peptide: KKTNGR
# B21: 6mer-1-903 (peptide)
# peptide: KKHKPR
# B22: 6mer-1-928 (peptide)
# peptide: KRYCPK
# B23: 6mer-1-874 (peptide)
# peptide: KRANHK
# B24: 6mer-1-879 (peptide)
# peptide: RRYNNR
# B25: 6mer-2-403 (peptide)
# peptide: KGVLRK
# B26: 6mer-1-895 (peptide)
# peptide: KKDSKK
# B27: 6mer-1-886 (peptide)
# peptide: RKFSNK
# B28: 6mer-1-919 (peptide)
# peptide: RKDHIK
# B29: 6mer-1-920 (peptide)
# peptide: RRPAMR
# B30: 6mer-1-325 (peptide)
# peptide: RRQIQR
# B31: 6mer-1-915 (peptide)
# peptide: RKDTWK
# B32: 6mer-1-911 (peptide)
# peptide: KRCAAR
# B33: 6mer-1-926 (peptide)
# peptide: KRESDR
# B34: 6mer-1-324 (peptide)
# peptide: RRLQRR
# B35: 6mer-1-918 (peptide)
# peptide: RRESMR
# B36: 6mer-1-912 (peptide)
# peptide: KKETFR
# B37: 6mer-1-878 (peptide)
# peptide: RRKDNR
# B38: 6mer-1-867 (peptide)
# peptide: KRIPMR
# B39: 6mer-1-901 (peptide)
# peptide: RKPNGR
# B40: 6mer-1-869 (peptide)
# peptide: KRKDER
# B41: 6mer-1-329 (peptide)
# peptide: RKWRQK
# B42: 6mer-1-924 (peptide)
# peptide: RKFNWR
# B43: 6mer-1-326 (peptide)
# peptide: RKWIYK
# B44: 6mer-1-880 (peptide)
# peptide: KRPMDK
# B45: 6mer-1-866 (peptide)
# peptide: KRCHFR
# B46: 6mer-1-910 (peptide)
# peptide: KRPTIR
# B47: 6mer-1-868 (peptide)
# peptide: KKHHAR
# B48: 6mer-1-889 (peptide)
# peptide: KRIMEK
# B49: 6mer-1-327 (peptide)
# peptide: KRGITR
# B50: 6mer-1-328 (peptide)
# peptide: KRWLQK
# B51: 6mer-1-887 (peptide)
# peptide: KRINHR
# B52: 6mer-1-893 (peptide)
# peptide: RRIPHR
# B53: 6mer-1-870 (peptide)
# peptide: KRMSHR
# B54: 6mer-1-908 (peptide)
# peptide: KKFMVR
# B55: 6mer-1-896 (peptide)
# peptide: KRDWIK
# B56: 6mer-1-923 (peptide)
# peptide: RRASDR
# B57: 6mer-1-897 (peptide)
# peptide: RRPSIK
# B58: 6mer-1-873 (peptide)
# peptide: KRIWAR
# B59: 6mer-1-927 (peptide)
# peptide: KRESHR
# B60: 6mer-1-881 (peptide)
# peptide: KKHMER
# B61: 6mer-1-902 (peptide)
# peptide: RRDKMK
# B62: 6mer-1-891 (peptide)
# peptide: RKMAFR
# B63: 6mer-1-909 (peptide)
# peptide: RKFCMR
# B64: 6mer-1-922 (peptide)
# peptide: RRDWGR
# B65: 6mer-1-913 (peptide)
# peptide: KRFWWK
# B66: 6mer-2-402 (peptide)
# peptide: KRYSRR
# B67: 6mer-1-906 (peptide)
# peptide: KKINGK
# B68: 6mer-1-898 (peptide)
# peptide: RKATKR
# B69: 6mer-1-930 (peptide)
# peptide: KKESNK
# B70: 6mer-1-894 (peptide)
# peptide: RKCWWR
# B71: 6mer-1-931 (peptide)
# peptide: KKNWPR
# B72: 6mer-1-925 (peptide)
# peptide: KKAMHR
# B73: 6mer-1-904 (peptide)
# peptide: KKDTKR
# B74: 6mer-1-917 (peptide)
# peptide: KRADDK
# B75: 6mer-1-907 (peptide)
# peptide: RKPAWR
# B76: 6mer-1-882 (peptide)
# peptide: KKPAMR
# B77: 6mer-1-334 (peptide)
# peptide: RRRRLR
# B78: 6mer-1-871 (peptide)
# peptide: KREWDR
# B79: 6mer-1-929 (peptide)
# peptide: RRCDHK
# Target: acetylcholine receptor
# Assay: SPR, receptor immobilized on CM5 chip, peptide 10 uM
row,Binder,Binding affinity (RU)
1,B1,148
2,B2,122
3,B3,135
4,B4,19
5,B5,36
6,B6,21
7,B7,20
8,B8,17
9,B9,39
10,B10,26
11,B11,33
12,B12,24
13,B13,31
14,B14,128
15,B15,18
16,B16,36
17,B17,33
18,B18,23
19,B19,19
20,B20,33
21,B21,37
22,B22,30
23,B23,18
24,B24,27
25,B25,123
26,B26,28
27,B27,17

row,Binder,Binding affinity (RU)
1,B28,26
2,B29,40
3,B30,142
4,B31,27
5,B32,28
6,B33,40
7,B34,128
8,B35,33
9,B36,33
10,B37,27
11,B38,25
12,B39,35
13,B40,22
14,B41,123
15,B42,29
16,B43,136
17,B44,21
18,B45,26
19,B46,42
20,B47,14
21,B48,25
22,B49,139
23,B50,151
24,B51,30
25,B52,22
26,B53,25
27,B54,37

row,Binder,Binding affinity (RU)
1,B55,11
2,B56,43
3,B57,24
4,B58,23
5,B59,37
6,B60,20
7,B61,39
8,B62,13
9,B63,33
10,B64,34
11,B65,27
12,B66,145
13,B67,30
14,B68,31
15,B69,43
16,B70,18
17,B71,35
18,B72,42
19,B73,31
20,B74,27
21,B75,42
22,B76,25
23,B77,154
24,B78,30
25,B79,25

# From patent US20250011363A1, “OPTIMIZED SHORTENED PEPTIDE THAT BINDS TO ACETYLCHOLINE RECEPTOR, AND USE THEREOF” (SKINMED CO., LTD., priority 2021, published 2025)
